# Assay results as given in PMC8452012, “Branched chain fatty acid synthesis drives tissue-specific innate immune response and infection dynamics of Staphylococcus aureus” (PLoS Pathogens, 2021).
# Tests used:
# Assay in all cases: purified protein
# Conditions in all cases: pH 8.0, 25 °C, 50 mM Tris-HCl, 1 mg/mL arabic gum, 0.05% Triton X-100, 10% isopropanol
# [1] = tested on: CCC(C)CCCCCCCCCCC(=O)Oc1ccc([N+](=O)[O-])cc1
# [2] = tested on: CCCCCCCC/C=C\CCCCCCCC(=O)Oc1ccc([N+](=O)[O-])cc1
# [3] = tested on: CCCC(=O)Oc1ccc([N+](=O)[O-])cc1
Substance,Km [1],Km [2],Km [3]
Geh (Sal2); Geh-6xHis (Staphylococcus aureus subsp. aureus NCTC 8325),74.1 µM,160.5 µM,
Sal1; Sal1-6xHis (Staphylococcus aureus subsp. aureus USA300),,,332.4 µM
